TRF signal data for eight molecules are collected here from patent US20230331827A1, “POTASSIUM CHANNEL INHIBITORS” (priority 2017, published 2023).

The target in test [1] is trypsin. Kind of test: TRF, 10 ug/mL Fab on trypsin.
Test [2] concerns the target trypsin. In words: TRF, 0.6 ug/mL Fab on trypsin.
Test [3] has as its target trypsin. Kind of test: TRF, 2.4 ug/mL Fab on trypsin.

B1: KB_A05 Fab (Fab, V domains shown)
VH: EVQLVESGGGLVRPGGSLRLSCAASGFTFSSYAMSWVRQAPGKGLEWVSAISGSGGSTYYADSVKGRFTISRDNTKNSLYLQMTSLRADDTAFYYCVDFGPGYGTGWFDYWGPGTLVTVSS
VL: AVNWYQQLPGKAPKLLIYAADKCPRILMRCKQDSDCLAGCVCGPNGFCGGGSGIPERFSGSKSGTSASLAISGLRSEDEADYYCATWDDNLNGVVFGGGTKLTVLG
In the case of B1, the TRF signal was determined as 218000 with trypsin [1], 46700 in the test with trypsin [2] and 65400 with trypsin [3].

B2: KB_A01 Fab (Fab, V domains shown)
VH: EVQLVESGGGLVRPGGSLRLSCAASGFTFSSYAMSWVRQAPGKGLEWVSAISGSGGSTYYADSVKGRFTISRDNTKNSLYLQMTSLRADDTAFYYCVKDFGPGYGTGWFDYWGPGTLVTVSS
VL: YLNWYQQKPGKAPKLLIYAAEVCPRILMRCKQDSDCLAGCVCGPNGFCGGTSGVPSRFSGSRSGTEFTLTISSLQPEDFATYYCQKVDDYPLTFGGGTKVEIKR
Regarding B2, the TRF signal worked out at 55600 with trypsin [1], 2390 with trypsin [2] and 16600 with trypsin [3].

B3: KB_A02 Fab (Fab, V domains shown)
VH: B2 VH
VL: AVNWYQQLPGKAPKLLIYAAAKCPRILMRCKQDSDCLAGCVCGPNGFCGGASGVSDRFSGSIDSSSNSASLTISGLKPEDEGDYYCQSYDSSNRWVFGGGTKVTVLG
For B3, the TRF signal in the test with trypsin [1] turned out to be 255000; with trypsin [2], 93800; with trypsin [3], 221000.

B4: KB_A07 Fab (Fab, V domains shown)
VH: B2 VH
VL: YLNWYQQKPGKAPKLLIYAAGVCPRILMRCKQDSDCLAGCVCGPNGFCGSRSGVPSRFSGSGSGTDFTLTISSLQPEDFATYYCQQGASPPYTFGQGTKVEIKR
For B4, the TRF signal with trypsin [1] amounted to 226000; with trypsin [2], 108000; with trypsin [3], 201000.

B5: KB_A09 Fab (Fab, V domains shown)
VH: B2 VH
VL: AVNWYQQLPGKAPKLLIYAAERCPRILMRCKQDSDCLAGCVCGPNGFCGTPSGVPDRFSGSIDTFSNSASLTISGLKTEDEADYYCQSYDSSHHWVFGGGTKLTVLG
With B5, the TRF signal with trypsin [1] worked out at 161000; in the test with trypsin [2], 21000; with trypsin [3], 84100.

B6: KB_A11 Fab (Fab, V domains shown)
VH: B2 VH
VL: YLNWYQQKPGKAPKLLIYAAEICPRILMRCKQDSDCLAGCVCGPNGFCGPSSGIPARFSGSGYGTDFTLTINNIESEDAAYYFCLQHDNFPYTFGQGTKVEIKR
Consider B6, for which the TRF signal with trypsin [1] was 212000; in the test with trypsin [2], 48900; with trypsin [3], 141000.

B7: KB_A06 Fab (Fab, V domains shown)
VH: B2 VH
VL: AVNWYQQLPGKAPKLLIYAAVRCPRILMRCKQDSDCLAGCVCGPNGFCGTPSGIPERFSGSIDRSTNSASLTISGLKTEDEADYYCQSYDSSNLNWVFGGGTKLTVLG
With B7, the TRF signal in the test with trypsin [1] worked out at 242000; in the test with trypsin [2] it was 108000; with trypsin [3], 212000.

B8: KB_A10 Fab (Fab, V domains shown)
VH: B2 VH
VL: AVNWYQQLPGKAPKLLIYAAGGCPRILMRCKQDSDCLAGCVCGPNGFCGSNSGVPDRFSGSKSGNTASLTISGLQSEDEADYYCAAWDDSLSGVVFGGGTQLTVLG
Take B8: the TRF signal with trypsin [1] stood at 68700; with trypsin [2], 14600; with trypsin [3] it was 71900.
